Assay results as given in patent US20180171024A1 (ADICET BIO, published 2018).

How the values were obtained:
[1] = molecular target: T1, HLA-A2/MART1(26) on T2 cells (human); assay: flow cytometry, peptide-loaded T2 cells (10^-5 M)
T1 construct: whole, on cells

[2] = molecular target: T2, HLA-A2/MAGE-A4 230-239 complex on cells (human); assay: flow cytometry, T2 cells loaded with 10^-4 M peptide
T2 construct: whole, on cells; also called MAGE-A4 peptide; HLA-A2+/MAGE-A4+ cells

[3] = molecular target: T3, single-chain recombinant HLA-A2/WT1 126-134 complex (human); assay: SPR (ProteOn), IgG captured via anti-mouse IgG, scHLA-A2/WT1 as analyte
T3 construct: also called scHLA-A2/WT1; MHC-WT1 peptide complex

[4] = molecular target: T3, single-chain recombinant HLA-A2/WT1 …; assay: SPR, B47B6 IgG captured via anti-mouse IgG, analyte scHLA-A2/WT1
[5] = molecular target: T1, HLA-A2/MART1(26) on T2 cells; assay: flow cytometry, T2 cells loaded with MART1 peptide
[6] = molecular target: T2, HLA-A2/MAGE-A4 230-239 complex on cells; assay: flow cytometry, peptide-loaded T2 cells (10^-5 M)
[7] = molecular target: T4, single-chain recombinant HLA-A2/Tyrosinase369-377 complex (human); assay: SPR, IgG captured by anti-mouse IgG, analyte scHLA-A2/Tyrosinase (EM3-TyrD)
T4 construct: also called scHLA-A2/Tyrosinase; HLA-A2/TyrD369-377

[8] = molecular target: T4, single-chain recombinant …; assay: SPR (ProteOn), IgG captured via anti-mouse IgG, scHLA-A2/Tyrosinase as analyte; apparent affinity
[9] = molecular target: T2, HLA-A2/MAGE-A4 230-239 complex on cells; assay: flow cytometry, peptide-loaded T2 cells (10^-5 M); remark: listed apart in the source
PAP112-A1 = molecular target: T5, PAP112-A1; assay: alanine scan, flow cytometry, peptide-loaded T2 cells (10^-5 M), antibody 10 µg/ml
T5 construct: also called PAP A1; HLA-A2/PAP A1 on T2 cells

PAP112-A9 = molecular target: T6, PAP112-A9 (Homo sapiens); assay: as above
T6 construct: cell surface;cell surface complex; also called PAP A9; HLA-A2/PAP A9 on T2 cells

[10] = molecular target: T7, HLA-A2/MAGE-A4-A2 on T2 cells (human); assay: flow cytometry (MFI), T2 cells loaded with Ala-mutated peptide
T7 construct: whole, on cells

[11] = molecular target: T8, HLA-A2/MAGE-A4-A4 on T2 cells (human); assay: as above
T8 construct: whole, on cells

[12] = molecular target: T9, HLA-A2/MAGE-A4-A5 on T2 cells (human); assay: as above
T9 construct: whole, on cells

[13] = molecular target: T10, HLA-A2/MAGE-A4-A6 on T2 cells (human); assay: as above
T10 construct: whole, on cells

[14] = molecular target: T11, HLA-A2/MAGE-A4-A7 on T2 cells (human); assay: as above
T11 construct: whole, on cells

MAGE-A4-A1 = molecular target: T12, MAGE-A4-A1; assay: alanine scan, flow cytometry, peptide-loaded T2 cells (10^-5 M), antibody 10 µg/ml
T12 construct: also called HLA-A2/MAGE-A4-A1 on T2 cells

MAGE-A4-A3 = molecular target: T13, MAGE-A4-A3; assay: as above
T13 construct: also called HLA-A2/MAGE-A4-A3 on T2 cells

MAGE-A4-A8 = molecular target: T14, MAGE-A4-A8; assay: as above
T14 construct: also called HLA-A2/MAGE-A4-A8 on T2 cells

MAGE-A4-A9 = molecular target: T15, MAGE-A4-A9; assay: as above
T15 construct: also called HLA-A2/MAGE-A4-A9 on T2 cells

MAGE-A4-A10 = molecular target: T16, MAGE-A4-A10; assay: as above
T16 construct: also called HLA-A2/MAGE-A4-A10 on T2 cells

[15] = molecular target: T17, single-chain recombinant HLA-A2/MAGE-A4 230-239 complex (human); assay: SPR (ProteOn); text: IgG captured via anti-mouse IgG, scHLA-A2/MAGE-A4 as analyte (FIG. 54 legend: complex on NeutrAvidin, Fab as analyte)
T17 construct: also called scHLA-A2/MAGE-A4

B1: B47B6 TCR-like antibody (IgG) (antibody, V domains shown)
VH: EVQLVESGGGLVKPGGSLKLSCAASGFVFSSYDMSWVRQAQEKRLEWVAYMSSGGGTYYPDTVKGRFTISRDNAKNTLHLQMSSLKSEDTAMYYCARHDEITNFDYWGQGTTLTVSS
VL: DIVLTQSPATLSVSPGDSVSLSCRASQSISNSLHWYQQKSHESPRLLIKYASQSISGIPSRFSGSGSGTDFTLSINSVETEDFGMYFCQQSYSWPLTFGAGSKLELKR
notes: also called WT1 B47B6
Does B1 bind [1]?
Result: no binding (tested: 10 µg/ml)

Does B1 bind [2]?
Result: no binding

What about the Kd [3] of the same binder?
Its Kd is 4.4 nM.

What about the Kd [4] of the same binder?
The Kd was 4.37 nM.

B2: 906-11-D11 TCR-like antibody (IgG) (antibody, V domains shown)
VH: not shown
VL: DIQMTQSPSSLSASLGGKVTITCKASQDIHNYIAWYQHKPVKGPRLLIHYTSTLQPGTPSRFSGSGSGRDYSFSISNLEPEDIATYYCLQYDNLWTFGGGTKLEIKR
notes: also called Tyr D11
Does B2 bind [5]?
Result: no binding (tested: 10 µg/ml)

Does B2 bind [6]?
Result: no binding (tested: 10 µg/ml)

What about the Kd [7] of the same binder?
The Kd was 4.14 nM.

And the Kd [8]?
Its Kd is 4.1 nM.

B3: 905-2-D7 TCR-like antibody (IgG) (antibody, V domains shown)
VH: QVQLKESGPGLVAPSQSLSITCTVSGFSLTSYGVHWVRQPPGKGLEWLGVIWAGGTTNYNSALMSRLSISRDNSKSQVFLEMNSLQTDDTAIYYCARDGHFHFDFWGQGTTLTVSS
VL: DIQMTQSPASLSVSVGETVTITCRASDIIYSNLAWYQQKQGKSPQLLVYAATNLAAGVPSRFSGSGSGTQYSLKINSLQSEDFGTYYCQHFWGSSISFGSGTKLEIKR
notes: also called Tyr D7
What does the source list for B3?
binding result [5]: no binding (tested: 10 µg/ml); binding result [6]: no binding (tested: 10 µg/ml)

B4: D10A3 TCR-like antibody (IgG) (antibody, V domains shown)
VH: EVQLQQFGTELVKPGASVKISCKASGYTFTDYNMDWVKQSHGKSLEWIGDINPNYDTTTYNQKFKGKATLTVDKSSSTAYMELRSLTSEDTAVFYCARRNYGNYVGFDFWGQGTTLTVSS
VL: NIVLTQTPKFLLVSAGDRVSITCKASQRVNNDVAWYQQKPGQSPKLLIYYASNRYTGVPDRFTGSGYGTDFTFTISTVQAEDLAVYFCQQDYSSPFTFGSGTKLEIKR
notes: also called PAP D10A3
What does the source list for B4?
binding result [9]: no binding (tested: 10 µg/ml); % of PAP112 binding (PAP112-A1): 83%; % of PAP112 binding (PAP112-A9): 1%

B5: C106B9 TCR-like antibody (IgG) (antibody, V domains shown)
VH: QVQLQQSGGEVMKPGASVKLSCKATGYTFTGYWIEWIKQRPGHGLEWIGEILPGSGGTNYNEKFKGKATFTAHTSSNTAYMQLSSLTTEDSAIYYCARDSNSFTYWGQGTLVTVSS
VL: QIVLTQSPAIMSASPGEKVTITCSVSSSVDYIHWFQQKPGTSPKFWIYSTSILASGVPARFSGSGSGTSYSLTISRMEAEDAATYYCQQRSSYPPTFGSGTKLEIKR
notes: also called MAGE-A4 C106B9
For B5, which “percent decrease in binding vs wild-type peptide” value (“percent decrease in binding” below) [10] is on record?
Its value is 33%.

And the “percent decrease in binding” value [11]?
Its value is 90%.

And the “percent decrease in binding” value [12]?
The value was 90%.

What about the “percent decrease in binding” value [13] of the same binder?
Its value is 90%.

And the “percent decrease in binding” value [14]?
Its value is 90%.

What about the “% of MAGE-A4 binding” value (MAGE-A4-A1) of the same binder?
The value was 106%.

And the “% of MAGE-A4 binding” value (MAGE-A4-A3)?
The value was 1%.

And the “% of MAGE-A4 binding” value (MAGE-A4-A8)?
Its value is 168%.

What about the “% of MAGE-A4 binding” value (MAGE-A4-A9) of the same binder?
The value was 79%.

What about the “% of MAGE-A4 binding” value (MAGE-A4-A10) of the same binder?
Its value is 4%.

What about the Kd [15] of the same binder?
Its Kd is 8.8 nM.
